Target: the molecule itself
Experiment: western blot (band of dimer size after electrophoresis); mitochondrial fractions of F258 cells exposed to B[a]P (50 nM or 1 µM, 48 h), lysed in RIPA buffer; 24 kDa band beside the 12 kDa monomer; gel conditions not shown

B1: ATPase inhibitory factor 1 (IF1) (natural protein, rat (endogenous in F258), UniProt Q03344 26-107, looked up)
chain: GSDSSESMDSGAGSIREAGGAFGKREKAEEDRYFREKTREQLAALKKHHEDEIDHHSKEIERLQKQIERHKKKIKYLKNSEH
notes: monomeric form printed as 12 kDa, dimer band as 24 kDa; Detected with a polyclonal rabbit anti-ATPIF1 antibody, used only as a tool; The western blot methods are in the Supplementary Information; also called ATPIF1; source: endogenous, mitochondrial fraction of F258 rat liver epithelial cells, lysed in RIPA buffer
- stoichiometry N: 2
